Test results reported in patent US5972698 (Novartis Corporation, dated 1999).

Biological target: bovine trypsin (bovine, UniProt P00760)
Assay: equilibrium dissociation constants (Ki) from enzyme inhibition

KKVCACPKILKPVCGSDGRTYANSCIARCNGVSIKSEGSCPTGILN (other): binds.
